Measurements reported in US20070087356A1.

Columns and labels:
[1] = biological target: GFP-Tus-His6 fusion protein (green fluorescent protein fused to E. coli Tus E47Q with a C-terminal six-histidine tag) (E. coli) (UniProt P16525); assay: protein microarray, fluorescence scan; fusion protein expressed in situ and captured on the spotted plasmid with wild-type Ter site
[2] = biological target: GFP-Tus-His6 fusion protein (green fluorescent protein fused to E. coli Tus E47Q with a C-terminal six-histidine tag) (E. coli) (UniProt P16525); assay: protein microarray, fluorescence scan; fusion protein expressed in situ and captured on the spotted plasmid with mutant Ter site (SEQ ID NO: 12)

Which Cy3 Signal Intensity (Background subtracted) (arbitrary units) [1] does the source give for “monoclonal antibody to the poly-his tag (Sigma-Aldrich), labeled with Cy3 or Cy5” here?
Its Cy3 Signal Intensity (Background subtracted) (arbitrary units) is 20600.

What about the Cy5 Signal Intensity (Background subtracted) (arbitrary units) [1] of the same substance?
The Cy5 Signal Intensity (Background subtracted) (arbitrary units) was 14000.

What about the Cy3 Signal Intensity (Background subtracted) (arbitrary units) [2] of the same substance?
The Cy3 Signal Intensity (Background subtracted) (arbitrary units) was 10900.

And the Cy5 Signal Intensity (Background subtracted) (arbitrary units) [2]?
Its Cy5 Signal Intensity (Background subtracted) (arbitrary units) is 4740.
